Drawing on patent US20160304586A1, this text covers neutralizing capacity in MDCK cell culture, Experiment 5, CPE, undiluted virus and neutralizing capacity in MDCK cell culture, Experiment 6, CPE, undiluted virus for one molecule.

The test concerns the target hemagglutinin of influenza B virus (B/Brisbane/60/2008 BX-35) (Influenza B virus B/Brisbane/60/2008 BX-35). The test is described as follows: cell-based or functional assay.

B1: CR11039 (antibody, V domains shown)
VH: EVQLVQSGAEVKKPGESVKISCKTSGYAFTGYGISWVRQAPGQGLEWMGWINTYKFNTNYAQNLQGRVTMTIDTSTSAAYMELRSLRYEDTAVYFCARDWAGPFGNAFDVWGQGTMVTVSS
VL: IQMTQSPSSLSASIGDRVAITCQASQDISDYLNWYQQQPGKAPKLLLYGASNLETGVPSRFSGSGSGTDFTFTISSLQPEDIATYYCQQYGNLPPTFGGGTKLEIK
B1 returned a neutralizing capacity in MDCK cell culture, Experiment 5, CPE, undiluted virus greater than 0.4 µg/mL and a neutralizing capacity in MDCK cell culture, Experiment 6, CPE, undiluted virus greater than 0.8 µg/mL.
